The results in this text go back to publication PMC3491057, “Proliferating Cell Nuclear Antigen (PCNA) Interactions in Solution Studied by NMR” (PLoS ONE, 2012).

No end group written: not given here.

Conditions in all cases: both partners purified
Assay [1] deals with Proliferating Cell Nuclear Antigen (PCNA), human (human). As to the kind of experiment: NMR titration; 280 µM U-2H,15N-PCNA titrated with a 7.5 mM stock of ING1^22 up to a 7.8-fold molar excess; CSP of H44 fitted to one set of sites; PBS pH 7.0, 35°C.
Chain of Proliferating Cell Nuclear Antigen (PCNA), human (human) (chain, as listed by the source): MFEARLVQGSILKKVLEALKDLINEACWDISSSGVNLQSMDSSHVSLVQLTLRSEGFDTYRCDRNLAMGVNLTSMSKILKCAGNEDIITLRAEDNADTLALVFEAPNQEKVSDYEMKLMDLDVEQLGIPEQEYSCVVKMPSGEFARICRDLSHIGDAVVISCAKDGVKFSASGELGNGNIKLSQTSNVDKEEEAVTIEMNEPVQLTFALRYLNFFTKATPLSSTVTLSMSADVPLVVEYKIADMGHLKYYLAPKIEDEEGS
For assay [2], the target named is T1, Proliferating Cell Nuclear Antigen (PCNA), human (human, homotrimeric ring; GlySerHis tag remnant before Met1 left out; 2H/15N(/13C) labelled for NMR, natural abundance for ITC). As to the kind of experiment: ITC; PCNA (11.2–13.4 µM protomers) in the cell titrated with peptide (117 µM p21^20, 363 p21^12); PBS pH 7.0, 30°C; single set of identical sites.
T1 sequence (chain, as listed by the source): as above
The target of assay [3] is T1, Proliferating Cell Nuclear Antigen …. As to the kind of experiment: ITC; PCNA (11.2–13.4 µM protomers) in the cell titrated with peptide (117 µM p21^20, 363 p21^12); PBS pH 7.0, 35°C; single set of identical sites. A general note: ITC needs no label: the signal is the heat of the interaction.

Regarding PANGEQLHLVNYVEDTLDSIES (not fully specified) [ING1 PIP-box fragment 4-25 (ING1^22)], in assay [1], the “KD with CSPmax set equal to the CSP of PCNA bound to p21^20” value was found to be 12500 ± 500 µM and the Kd amounted to 2000 ± 700 µM.

Take KRRQTSMTDFYH (source: lyophilized peptide) [p21 fragment 141-152 (p21^12), shorter PIP-box peptide of the Cyclin-dependent kinase inhibitor 1]: in assay [2], the Kd stood at 0.64 µM and the “stoichiometry N” value is 1 p21 ligand per PCNA protomer. The molecule also showed a dissociation constant Kd in assay [3] of 1.1 µM.

What is called Kd is the free concentration of one partner at which half of the binding sites on the other are occupied at equilibrium, for simple one-to-one binding. A high value points to lower affinity.
